Test results taken from PMC8263624, “Asymmetric reconstruction of mammalian reovirus reveals interactions among RNA, transcriptional factor µ2 and capsid proteins” (Nature Communications, 2021).

T1: capsid shell protein (CSP) λ1 (Mammalian reovirus serotype Dearing 3, UniProt P15024 1-1275)
T1 construct: capsid shell protein λ1 of mammalian reovirus serotype Dearing 3, native in the virus particle; 120 copies in each particle as λ1A/λ1B dimers; five pairs (1-5) around each vertex; also called λ1A; λ1B
T1 sequence: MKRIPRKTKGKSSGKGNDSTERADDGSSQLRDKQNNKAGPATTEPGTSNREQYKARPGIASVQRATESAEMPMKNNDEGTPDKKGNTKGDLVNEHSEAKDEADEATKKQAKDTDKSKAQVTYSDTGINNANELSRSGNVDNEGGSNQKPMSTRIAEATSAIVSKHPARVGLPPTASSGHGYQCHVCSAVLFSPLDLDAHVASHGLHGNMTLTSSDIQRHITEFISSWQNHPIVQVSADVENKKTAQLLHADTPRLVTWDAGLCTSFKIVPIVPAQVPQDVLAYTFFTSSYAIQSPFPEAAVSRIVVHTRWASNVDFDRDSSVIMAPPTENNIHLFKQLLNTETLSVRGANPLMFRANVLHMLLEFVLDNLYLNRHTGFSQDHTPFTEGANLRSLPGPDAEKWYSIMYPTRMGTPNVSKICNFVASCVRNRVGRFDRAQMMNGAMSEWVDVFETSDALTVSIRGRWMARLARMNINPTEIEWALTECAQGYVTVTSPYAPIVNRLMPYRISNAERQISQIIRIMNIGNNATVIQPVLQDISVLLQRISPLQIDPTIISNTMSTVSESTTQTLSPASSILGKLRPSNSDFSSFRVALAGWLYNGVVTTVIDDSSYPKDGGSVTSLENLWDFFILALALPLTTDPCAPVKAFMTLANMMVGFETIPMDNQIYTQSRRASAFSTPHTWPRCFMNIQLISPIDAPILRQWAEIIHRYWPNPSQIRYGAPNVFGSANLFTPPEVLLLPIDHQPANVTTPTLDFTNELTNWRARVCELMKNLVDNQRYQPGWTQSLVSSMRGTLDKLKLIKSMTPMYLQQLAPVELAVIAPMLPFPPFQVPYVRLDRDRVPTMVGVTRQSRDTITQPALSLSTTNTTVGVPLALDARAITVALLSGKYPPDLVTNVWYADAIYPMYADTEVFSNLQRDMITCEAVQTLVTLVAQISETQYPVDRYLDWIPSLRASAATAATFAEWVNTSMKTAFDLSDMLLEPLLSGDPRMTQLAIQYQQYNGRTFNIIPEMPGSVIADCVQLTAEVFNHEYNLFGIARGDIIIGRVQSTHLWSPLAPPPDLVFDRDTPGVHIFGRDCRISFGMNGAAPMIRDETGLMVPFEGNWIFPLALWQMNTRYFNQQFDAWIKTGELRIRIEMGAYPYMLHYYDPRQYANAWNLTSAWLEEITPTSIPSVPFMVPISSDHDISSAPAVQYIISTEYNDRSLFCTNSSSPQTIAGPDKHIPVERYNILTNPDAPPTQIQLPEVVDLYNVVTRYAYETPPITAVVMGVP

B1: RNA-dependent RNA polymerase (RdRp) λ3 (enzyme)
chain: MSSMILTQFGPFIESISGITDQSNDVFEDAAKAFSMFTRSDVYKALDEIPFSDDAMLPIPPTIYTKPSHDSYYYIDALNRVRRKTYQGPDDVYVPNCSIVELLEPHETLTSYGRLSEAIENRAKDGDSQARIATTYGRIAESQARQIKAPLEKFVLALLVAEAGGSLYDPVLQKYDEIPDLSHNCPLWCFREICRHISGPLPDRAPYLYLSAGVFWLMSPRMTSAIPPLLSDLVNLAILQQTAGLDPSLVKLGVQICLHAAASSSYSWFILKTKSIFPQNTLHSMYESLEGGYCPNLEWLEPRSDYKFMYMGVMPLSAKYARSAPSNDKKARELGEKYGLSSVVGELRKRTKTYVKHDFASVRYIRDAMACTSGIFLVRTPTETVLQEYTQSPEIKVPIPQKDWTGPIGEIRILKDTTSSIARYLYRTWYLAAARMAAQPRTWDPLFQAIMRSQYVTARGGSGAALRESLYAINVSLPDFKGLPVKAATKIFQAAQLANLPFSHTSVAILADTSMGLRNQVQRRPRSIMPLNVPQQQVSAPHTLTADYINYHMNLSPTSGSAVIEKVIPLGVYASSPPNQSINIDISACDASITWDFFLSVIMAAIHEGVASSSIGKPFMGVPASIVNDESVVGVRAARPISGMQNMIQHLSKLYKRGFSYRVNDSFSPGNDFTHMTTTFPSGSTATSTEHTANNSTMMETFLTVWGPEHTDDPDVLRLMKSLTIQRNYVCQGDDGLMIIDGTTAGKVNSETIQNDLELISKYGEEFGWKYDIAYDGTAEYLKLYFIFGCRIPNLSRHPIVGKERANSSAEEPWPAILDQIMGVFFNGVHDGLQWQRWIRYSWALCCAFSRQRTMIGESVGYLQYPMWSFVYWGLPLVKAFGSDPWIFSWYMPTGDLGMYSWISLIRPLMTRWMVANGYVTDRCSTVFGNADYRRCFNELKLYQGYYMAQLPRNPKKSGRAASREVREQFTQALSDYLMQNPELKSRVLRGRSEWEKYGAGIIHNPPSLFDVPHKWYQGAQEAAIATREELAEMDETLMRARRHSYSSFSKLLEAYLLVKWRMCEAREPSVDLRLPLCAGIDPLNSDPFLKMVSVGPMLQSTRKYFAQTLFMAKTVSGLDVNAIDSALLRLRTLGADKKALTAQLLMVGLQESEADALAGKIMLQDVNTVQLARVVNLAVPDTWMSLDFDSMFKHHVKLLPKDGRHLNTDIPPRMGWLRAILRFLGAGMVMTATGVAVDIYLEDIHGGGRSLGQRFMTWMRQEGRSA
notes: RdRp λ3 of mammalian reovirus serotype Dearing 3, native in the virus particle; domains stated as residues 1-386, 387-556 and 595-690, 557-594 and 691-792, 793-901, 902-1267; Part of the transcribing enzyme complex (TEC) with µ2; ten TECs in each particle
B2: RdRp-bound nucleoside triphosphatase μ2 (enzyme)
chain: MAYIAVPAVVDSRSSEAIGLLESFGVDAGADANDVSYQDHDYVLDQLQYMLDGYEAGDVIDALVHKNWLHHSVYCLLPPKSQLLEYWKSNPSAIPDNVDRRLRKRLMLKKDLRKDDEYNQLARAFKISDVYAPLISSTTSPMTMIQNLNRGEIVYTTTDRVIGARILLYAPRKYYASTLSFTMTKCIIPFGKEVGRVPHSRFNVGTFPSIATPKCFVMSGVDIESIPNEFIKLFYQRVKSVHANILNDISPQIVSDMINRKRLRVHTPSDRRAAQLMHLPYHVKRGASHVDVYKVDVVDMLFEVVDVADGLRNVSRKLTMHTVPVCILEMLGIEIADYCIRQEDGMLTDWFLLLTMLSDGLTDRRTHCQYLMNPSSVPPDVILNISITGFINRHTIDVMPDIYDFVKPIGAVLPKGSFKSTIMRVLDSISILGIQIMPRAHVVDSDEVGEQMEPTFEQAVMEIYKGIAGVDSLDDLIKWVLNSDLIPHDDRLGQLFQAFLPLAKDLLAPMARKFYDNSMSEGRLLTFAHADSELLNANYFGHLLRLKIPYITEVNLMIRKNREGGELFQLVLSYLYKMYATSAQPKWFGSLLRLLICPWLHMEKLIGEADPASTSAEIGWHIPREQLMQDGWCGCEDGFIPYVSIRAPRLVIEELMEKNWGQYHAQVIVTDQLVVGEPRRVSAKAVIKGNHLPVKLVSRFACFTLTAKYEMRLSCGHSTGRGAAYSARLAFRSDLA
notes: NTPase μ2 of mammalian reovirus serotype Dearing 3, native in the virus particle; 736 residues in all, 680 modelled; RBD 1-264, NTPase domain 265-607, CTD 608-736; also called NTPase; NTPase μ2

Tests used:
[1] = biological target: T1, capsid shell protein (CSP) λ1; assay: cryo-EM structure; asymmetric (C1) vertex sub-particle reconstructions of native MRV ISVP at 3.3 Å, asymmetric full ISVP at 4.3 Å; isolated virus particles in PBS pH 7.4; proteins assembled in the particle, in situ; settings: both partners purified
[2] = biological target: B1; assay: as above; settings: both partners purified

Question: Does B1 bind [1]?
Answer: Result: binds

Question: Does B2 bind [1]?
Answer: Result: binds

Question: Does B2 bind [2]?
Answer: Result: binds
